Test: soluble on expression in E. coli; label from the status in PepcDB or PDB records

Soluble on expression in E. coli, soluble:
MKQHQSADNSQGQLYIVPTPIGNLADITQRALEVLQAVDLIAAEDTRHTGLLLQHFGINARLFALHDHNEQQKAETLLAKLQEGQNIALVSDAGTPLINDPGYHLVRTCREAGIRVVPLPGPCAAITALSAAGLPSDRFCYEGFLPAKSKGRRDALKAIEAEPRTLIFYESTHRLLDSLEDIVAVLGESRYVVLARELTKTWETIHGAPVGELLAWVKEDENRRKGEMVLIVEGHKAQEEDLPADALRTLALLQAELPLKKAAALAAEIHGVKKNALYKYALEQQG
MAAHQLSDFQRNKILRVFNTFYDCNHDGVIEWDDFELAIKKICNLHSWPTDGKKHNEARATLKLIWDGLRKYADENEDEQVTKEEWLKMWAECVKSVEKGESLPEWLTKYMNFMFDVNDTSGDNIIDKHEYSTVYMSYGIPKSDCDAAFDTLSDGGKTMVTREIFARLWTEYFVSNDRGAKGNHLFGTLKL
MTDLVAVWDVALSDGVHKIEFEHGTTSGKRVVYVDGKEEIRREWMFKLVGKETFFVGAAKTKATINIDAISGFAYEYTLEIDGKSLKKYMENRSKTTSTWVLRLDGEDLRVVLEKDTMDVWCNGQKMETAGEFVDDGTETHFSVGNHGCYIKAVSSRKRKEGIIHTLIVDNREIPELTQ
MKYNNHDKIRDFIIIEAYMFRFKKKVKPEVDMTIKEFILLTYLFHQQENTLPFKKIVSDLCYKQSDLVQHIKVLVKHSYISKVRSKIDERNTYISISEEQREKIAERVTLFDQIIKQFNLADQSESQMIPKDSKEFLNLMMYTMYFKNIIKKHLTLSFVEFTILAIITSQNKNIVLLKDLIETIHHKYPQTVRALNNLKKQGYLIKERSTEDERKILIHMDDAQQDHAEQLLAQVNQLLADKDHLHLVFE
MAHHHHHHMTAYPFPIIDVSPLYQNTGAVMEVAKKIDEACRTWGFFYVVGHPIPRERFQELSRMARKFFSLPLEEKLQIDIKKSRHHRGYGEVNAEQLDPSAPNDHKETFDMGCHLPEDHPDVVAGKPLRGPNRHPTQLEGWRELMETHYREMQHFALVLLRALAVAIGIEEDFFVPRFVEPLSVFRMIHYPALPKTKEGRLVCGEHTDYGIITLLFQDTNGGLQVRDLSGEWIDAPPLEGSFVVNIGDMMNMWSNNRYRSTPHRVVNPGVDRISMPFFCEPNPNVVIKCLENCHSAENPAKYPPVKASDWLQKRFAQTYAYRKSML
MVTPREPKKRTTRKKKDPNAPKRALSAYMFFANENRDIVRSENPDITFGQVGKKLGEKWKALTPEEKQPYEAKAQADKKRYESEKELYNATLA
MSAAEEVDGLGVVRPHYGSVLDNERLTAEEMDERRRQNVAYEYLCHLEEAKRWMEACLGEDLPPTTELEEGLRNGVYLAKLGNFFSPKVVSLKKIYDREQTRYKATGLHFRHTDNVIQWLNAMDEIGLPKIFYPETTDIYDRKNMPRCIYCIHALSLYLFKLGLAPQIQDLYGKVDFTEEEINNMKIELEKYGIQMPAFSKIGGILANELSVDEAALHAAVIAINEAIDRRVAADTFTALKNPNAMLVNLEEGLAPTYQDVLYQAKQDKMTNAKNRTENSDRERDVYEELLTQAEIQGNVNKVNTSSALADISLALEQGCAVTLLKALQSLALGLRGLQTQNSDWYMKQLQSDLQQKRQSGQTDPLQKEEVQAGVDAANSAAQQYQRRKRPLAPGHRSVQGRAVVALCH
AIAADTVDGKKEEADYKRLHNFPLIRHTDMPEEMRVETMELCVTACEKFATNNESAAKMIKESMDKKFGSSWHVVIGEGFGFEITHEVKNLLYMFFGGSLAVCVWKCS

Soluble on expression in E. coli, not soluble:
MGSDKIHHHHHHMGKVADTLKPGDRVLLSFEDESEFLVDLEKDKKLHTHLGIIDLNEVFEKGPGEIIRTSAGKKGYILIPSLIDEIMNMKRRTQIVYPKDSSFIAMMLDVKEGDRIIDTGVGSGAMCAVLARAVGSSGKVFAYEKREEFAKLAESNLTKWGLIERVTIKVRDISEGFDEKDVDALFLDVPDPWNYIDKCWEALKGGGRFATVCPTTNQVQETLKKLQELPFIRIEVWESLFRPYKPVPERLRPVDRMVAHTAYMIFATKVCRREETE
MVVFGTTFFNFDSFIGKTDSIEIIGKSVFPYCYHNILPLLNDSGRYSLGDARRPLHETAVLVEDVVHTQLINLLQQAAEVSQLRGARVITPEDLLFLMRKDKKKLRRLLKYMFIRDYKSKIVKGIDEDDLLEDKLSGSNNANKRQKIAQDFLNSIDQTGELLAMFEDDEIDEVKQERMERAERQTRIMDSAQYAEFCESRQLSFSKKASKFRDWLDCSSMEIKPNVVAMEILAYLAYETVAQLVDLALLVRQDMVTKAGDPFSHAISATFIQYHNSAESTAACGVEAHSDAIQPCHIREAIRRYSHRIGPLSPFTNAYRRNGMAFLAC
MTTLIISDLHLDPLRPVVTELFLRFLREQVSGADALYILGDLFEIWIGDDMPSEVADMVVAALRTHADAGTPLYFMPGNRDFLVGADYAARAGFRILPDPCVVDLYGEPTLLLHGDLLCTDDIAYQAFRAQTRDPEFIAQFLTQTLSARLAFAQQARLASHAHQSGLKQENDSTQFEKITDVVPADVAAMFACYGVNRMIHGHTHRPALHMLQVAECACTRVVLGDWYQQGSVLCVDADGLVLEQLLLP
MSLKAFGFNQYGNSNVMEELNIPIPKIKPGEVLVKTTAFAINAFDIAVRNGQFRNNVTLLFPTILGTDGVGRIVKLGAGVHDYSIGDDVLARPGIGTYTEYFKVSVDHLGSRPSNYSPYEAAGLPLSGITAYNTLVHIAHVKQGQTVVILGSSGGVGSMLVQMAHALGLYVIGTDAESARETVLNLGASEFGAYDTERVSSKFKSMADILIDATNLGASIAGIQIIKPTGTYVSLTTLPKDRTLKPDVIYRQVIPRREYRDSDAFTTISLMIRNNQLHVPIDHLESFTLDGIRKGQSDVENGSPDGKVIVTLEGHHHHHH
VAITDNRGVITHVNEKFCDISQYEYYELVGTTHKIINSGFHPRSFFKQMWKTIAQGNIWKGEICNRTKQGKLYWVDTTIVPLKDNDGLLKNYISIRTDITQ
MGSDKIHHHHHHMIIAVSGKGGVGKTAFTTLLIKALSKKTNSILVVDADPDSNLPETLGVEVEKTVGDIREELKKLVERDEIPAGMTKLDYLRSKIFEILVETKYYDLLVMGRPEGSGCYCSVNNWLRQIIDNLAKDYEFVVIDTEAGLEHLSRRTTQNVDVMIVITDASKRGLGTAKRIKKLANELEVKFKDIYVVANKVKPEYEELIDNYAKELGLNLIGKLPYNKEIAEYDLKGIPLWNLPENNEVYKKVEEIAEKIINKKF
MGSDKIHHHHHHMWTSKQQQALDHLAATPSLLVVSDFDGTLAGFSHDAMQVPVNHVAMAALQQLTSLPSTRVALLSGRDVQGLIQVSGAAAPMIVAGSHGAESTEGGLVLNEDQQAALSAVTAALEEIATSVPGAFVEHKPYHRVLHVIRVADQQRARAALDRALALEIPGAKIAEGKWIAEASVVDFTKGTWIKAAQEQYRPSVTLFLGDDTTDENGFAVLGCNDVGIKVGAGDTCATVRLESIDRVGQFLSSLADARSAAQQ
MGSDKIHHHHHHMVSFVHSSDLHLGKSFGTFPEDVRVRLQQARLESLTTLADIARTNGARHVLLAGDTFDKMTPAPKVIRGALNAMREAADVTWWVLPGNHDHVNATELWRTFTSDAPANVHALLRPEPVMLTDGVALLPAPPTERHPGRDLTDWFDDAATGDALRIGLAHGSIRGFSAEDGGASVLSFNRARDAGLAYLGLGDWHGQLQVSENTWYSGAPEADSFKHAMDPSALLVEVDGARVTVTPHPTSRLIWRASEVDLIGDEADLPLPPQDRARTLLKLTLTGRARPAVRRDLEAAFDHAAPDFLWAEAEFDGLDLVHETSDLDQIDRQGALRAAAEALVREADDQALSPEARATADAALSLLFTYAAEA
MFVDKNGVNMEKKLVKQQLLTGERALFASKDLRIEDSIFDDGESPLKESSNIELVNSSFKWKYPLWYCNNVNVKDCYFFEMGRAGVWYTNDINVEDTIIEAPKNFRRCNRLGLKNVEFVNAEETLWSCDNVTMTNVVAKGNYFAMNSNDMKIDGLKLVGNYPFDGSKNLEIRNSRLMSKDAFWNAENITVYDSYISGEYLGWNSKNLTFINCTIESLQGLCYIDNLVMKNCKLINTTLAFEYSTVDADITSRVDSVLNPTSGTITADSIDKLIIEKDKVDPSLTKIVCRN
MGSDKIHHHHHHMKRVSVVILNWNGVDMLRKFIPSVMDNSVGEGIEICVADNASSDGSLEMLRSEFPVVRLIELDQNYGFAEGYNRALEQVDAEYVVLLNSDVEVTPHWLEPLLDYMDTHSGTVACQPKLLSWHNKEYFEYAGASGGFIDRYGYPFCRGRIFDVVEKDCGQYDTITEVMWVTGAALFIRLADYREVGGLDGHFFAHMEEIDLCWRLRSRGKKLVCIPQSVVYHVGGATLKKENPRKTFLNFRNNLLMLYKNLPDKELEHVLFIRGILDRVAALVFYLKKDRANARAVMQARREFEDIRYSFAASRIENMMKSTDEIIPERTHFSIVMKYYLLGKKHFSQLKLF
VAASWREQFIRAEQTHWDAVTETASETYWEGGVLSDVTALAPDPATLFISNSMPIRDMDRFGGPRDADLTVLGNRGASGIDGITSTALGAGSATSDPLVLVTGDLAYYHDMNGLLALGRCAVDATVVLLNNDGGGIFHMLPIEDHPTFEDQFRTPHGLDFEPTEALYSLQFERVADRRQFRERFAESVQTDGTQVIEVRFDAGDSHAVRDQLTE
MGSDKIHHHHHHMMELLNVNNLKVEFHRVEGIVKAVDGISYKLNKGESLGIVGESGSGKSVSVLSLLRLINRNGRIVDGEAIFLGKDLLKLNKEELRNIRGKDISIIFQNPMTSLNPIIRVGIQVMEPIIWHRLMKNEEARERAIELLERVGIPESPKRFLNYPFQFSGGMRQRVMIAMALACHPKLLIADEPTTALDVTIQAQIMELLQELKEEYGMSVIFITHDLSVATNFCDRIITMYAGKIVEEAPVEEILKTPLHPYTKGLLNSTLEIGSRGKKLVPIPGNPPNPTKHPSGCKFHPRCSFAMEICQREEPPLVNISENHRVACHLIKGESK
MGSDKIHHHHHHMLEFTKRSLMNKYNINERVLELYERALNDVEKEFKYYDEIREYNQLKVLKAFQEERISESHFTNSSGYGYNDIGRDSLDRVYANIFNTESAFVRPHFVNGTHAIGAALFGNLRPNDTMMSICGMPYDTLHDIIGMDDSKKVGSLREYGVKYKMVDLKDGKVDINTVKEELKKDDSIKLIHIQRSTGYGWRKSLRIAEIAEIIKSIREVNENVIVFVDNCYGEFVEEKEPTDVGADIIAGSLIKNIGGGIATTGGYIAGKEEYVTQATFRVTVPGIGGECGSTFGVMRSLYEGLFMAPHVTIEAVKGAVFCARIMELAGFDVLPKYNDKRTDIIQAIKFNDEKKLIDFIKGIQTASPVDSFVQCEAWDMPGYEDKVIMAAGTFVQGASIELSADAPIREPYIGYLQGGLTFDHAKLGVLIALSKLIM
MSLMPLLDKLREQYGVGPVCSELHIAPSTYYHCQQQRHHPDKRSARAQHDDWLKREIQRVYDENHQVYGVRKVWRQLLREGIRVARCTVARLMAVMGLAGVLRGKKVRTTISRKAVAAGDRVNRQFVAERPDQLWVADFTYVSTWQGFVYVAFIIDVFAGYIVGWRVSSSMETTFVLDALEQALWARRPSGTIHHSDKGSQYVSLAYTERLKEAGLLASTGSTGDSYDNAMAESINGLYKAEVIHRKSWKNRAEVELATLTWVDWYNNRRLLGRLGHAPPAEAEKAYYASIGNDDLAAEGHHHHHH

Reference: the DeepSol protein solubility set
